Measured values taken from paper PMC10397247.
Like-named read-outs stand apart in the source and are kept apart here.

Key:
Test in all cases: two-hybrid library CCmax;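 note: natural log of median RNA to DNA barcode read ratio; higher means stronger binding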
4H710-AA = target: T1, 4H710-AA; settings: mean of both orientations
T1 chain: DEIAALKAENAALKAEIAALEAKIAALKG

4H930-AA = target: T2, 4H930-AA; settings: mean of both orientations
T2 chain: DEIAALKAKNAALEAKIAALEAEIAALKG

4H2253-AA = target: T3, 4H2253-AA; settings: mean of both orientations
T3 chain: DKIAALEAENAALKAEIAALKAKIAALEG

4H485-AA = target: T4, 4H485-AA; settings: mean of both orientations
T4 chain: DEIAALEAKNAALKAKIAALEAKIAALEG

4H3130-AA = target: T5, 4H3130-AA; settings: mean of both orientations
T5 chain: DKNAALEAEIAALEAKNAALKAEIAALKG

4H2330-AA = target: T6, 4H2330-AA
T6 chain: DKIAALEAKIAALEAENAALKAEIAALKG

4H310-AA = target: T7, 4H310-AA; settings: mean of both orientations
T7 chain: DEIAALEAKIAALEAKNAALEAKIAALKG

4H536-AA = target: T8, 4H536-AA; settings: mean of both orientations
T8 chain: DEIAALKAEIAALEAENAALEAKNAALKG

4H3016-AA = target: T9, 4H3016-AA; settings: mean of both orientations
T9 chain: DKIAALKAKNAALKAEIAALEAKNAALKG

4H909-AA = target: T10, 4H909-AA; settings: mean of both orientations
T10 chain: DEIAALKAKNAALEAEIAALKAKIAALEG

4H3865-AA = target: T11, 4H3865-AA; settings: mean of both orientations
T11 chain: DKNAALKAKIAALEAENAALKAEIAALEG

4H94-AA = target: T12, 4H94-AA; settings: mean of both orientations
T12 chain: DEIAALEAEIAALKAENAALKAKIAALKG

4H3590-AA = target: T13, 4H3590-AA; settings: mean of both orientations
T13 chain: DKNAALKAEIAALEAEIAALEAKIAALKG

4H2389-AA = target: T14, 4H2389-AA; settings: mean of both orientations
T14 chain: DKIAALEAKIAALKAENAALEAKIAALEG

4H3410-AA = target: T15, 4H3410-AA; settings: mean of both orientations
T15 chain: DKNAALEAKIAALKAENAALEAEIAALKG

4H3165-AA = target: T16, 4H3165-AA; settings: mean of both orientations
T16 chain: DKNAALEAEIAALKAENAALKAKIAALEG

4H3697-AA = target: T17, 4H3697-AA; settings: mean of both orientations
T17 chain: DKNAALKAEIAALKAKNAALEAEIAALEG

4H2274-AA = target: T18, 4H2274-AA; settings: mean of both orientations
T18 chain: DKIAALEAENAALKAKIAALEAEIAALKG

4H570-AA = target: T19, 4H570-AA; settings: mean of both orientations
T19 chain: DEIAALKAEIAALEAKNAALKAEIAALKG

4H3009-AA = target: T20, 4H3009-AA; settings: mean of both orientations
T20 chain: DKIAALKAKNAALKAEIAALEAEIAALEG

4H629-AA = target: T21, 4H629-AA; settings: mean of both orientations
T21 chain: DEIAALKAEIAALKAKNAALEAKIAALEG

4H850-AA = target: T22, 4H850-AA; settings: mean of both orientations
T22 chain: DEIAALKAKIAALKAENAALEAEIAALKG

4H458-AA = target: T23, 4H458-AA; settings: mean of both orientations
T23 chain: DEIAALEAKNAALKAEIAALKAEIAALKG

4H2865-AA = target: T24, 4H2865-AA; settings: mean of both orientations
T24 chain: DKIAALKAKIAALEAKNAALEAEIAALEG

4H3381-AA = target: T25, 4H3381-AA; settings: mean of both orientations
T25 chain: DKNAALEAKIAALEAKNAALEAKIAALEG

4H1877-AA = target: T26, 4H1877-AA; settings: mean of both orientations
T26 chain: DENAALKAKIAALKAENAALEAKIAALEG

4H2162-AA = target: T27, 4H2162-AA; settings: mean of both orientations
T27 chain: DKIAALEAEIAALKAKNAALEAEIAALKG

4H1864-AA = target: T28, 4H1864-AA
T28 chain: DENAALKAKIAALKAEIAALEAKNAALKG

4H1842-AA = target: T29, 4H1842-AA
T29 chain: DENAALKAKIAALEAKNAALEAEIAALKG

4H2725-AA = target: T30, 4H2725-AA
T30 chain: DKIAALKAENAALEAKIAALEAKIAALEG

4H3395-AA = target: T31, 4H3395-AA; settings: mean of both orientations
T31 chain: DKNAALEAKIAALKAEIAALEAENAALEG

4H2473-AA = target: T32, 4H2473-AA; settings: mean of both orientations
T32 chain: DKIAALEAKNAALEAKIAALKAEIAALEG

4H3120-AA = target: T33, 4H3120-AA; settings: mean of both orientations
T33 chain: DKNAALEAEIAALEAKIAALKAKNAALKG

4H2109-AA = target: T34, 4H2109-AA; settings: mean of both orientations
T34 chain: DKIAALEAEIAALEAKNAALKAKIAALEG

4H2438-AA = target: T35, 4H2438-AA; settings: mean of both orientations
T35 chain: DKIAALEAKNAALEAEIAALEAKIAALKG

4H3753-AA = target: T36, 4H3753-AA; settings: mean of both orientations
T36 chain: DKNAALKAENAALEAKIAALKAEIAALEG

4H745-AA = target: T37, 4H745-AA; settings: mean of both orientations
T37 chain: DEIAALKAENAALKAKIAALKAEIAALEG

4H2698-AA = target: T38, 4H2698-AA; settings: mean of both orientations
T38 chain: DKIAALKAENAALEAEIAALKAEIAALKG

4H891-AA = target: T39, 4H891-AA; settings: mean of both orientations
T39 chain: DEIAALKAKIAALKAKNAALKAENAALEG

4H2649-AA = target: T40, 4H2649-AA; settings: mean of both orientations
T40 chain: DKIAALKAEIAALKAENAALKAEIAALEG

4H797-AA = target: T41, 4H797-AA; settings: mean of both orientations
T41 chain: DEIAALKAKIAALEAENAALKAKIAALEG

4H568-AA = target: T42, 4H568-AA
T42 chain: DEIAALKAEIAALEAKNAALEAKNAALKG

4H953-AA = target: T43, 4H953-AA; settings: mean of both orientations
T43 chain: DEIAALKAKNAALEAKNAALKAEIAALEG

4H687-AA = target: T44, 4H687-AA; settings: mean of both orientations
T44 chain: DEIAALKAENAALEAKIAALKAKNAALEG

4H967-AA = target: T45, 4H967-AA; settings: mean of both orientations
T45 chain: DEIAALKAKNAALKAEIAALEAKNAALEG

4H717-AA = target: T46, 4H717-AA; settings: mean of both orientations
T46 chain: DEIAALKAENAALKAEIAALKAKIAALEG

4H883-AA = target: T47, 4H883-AA; settings: mean of both orientations
T47 chain: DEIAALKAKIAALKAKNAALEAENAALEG

4H918-AA = target: T48, 4H918-AA; settings: mean of both orientations
T48 chain: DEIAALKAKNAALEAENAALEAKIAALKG

## DENAALKAKIAALEAKNAALEAEIAALKG [4H1842-AA]
4H710-AA
  interaction score: -1.63
4H930-AA
  interaction score: -1.21
4H2253-AA
  interaction score: -1.72
4H485-AA
  interaction score: -1.94
4H3130-AA
  interaction score: 0.65
4H2330-AA
  interaction score: -1.35
4H310-AA
  interaction score: 0.761
4H536-AA
  interaction score: -1.7
4H3016-AA
  interaction score: -1.43
4H909-AA
  interaction score: -1.17
4H3865-AA
  interaction score: -0.938
4H94-AA
  interaction score: -1.17
4H3590-AA
  interaction score: -0.391
4H2389-AA
  interaction score: -1.52
4H3410-AA
  interaction score: -0.8
4H3165-AA
  interaction score: -1.43
4H3697-AA
  interaction score: -1.01
4H2274-AA
  interaction score: -1.6
4H570-AA
  interaction score: 0.585
4H3009-AA
  interaction score: -1.78
4H629-AA
  interaction score: -1.59
4H850-AA
  interaction score: 0.256
4H458-AA
  interaction score: -1.14
4H2865-AA
  interaction score: -0.0645
4H3381-AA
  interaction score: -1.2
4H1877-AA
  interaction score: -1.15
4H2162-AA
  interaction score: -1.21
4H1864-AA; mean of both orientations
  interaction score: -1.82
4H1842-AA
  interaction score: 1.88
4H2725-AA
  interaction score: -1.86
4H3395-AA
  interaction score: -2.04
4H2473-AA
  interaction score: -1.44
4H3120-AA
  interaction score: -1.44
4H2109-AA
  interaction score: -1.43
4H2438-AA
  interaction score: -1.14
4H3753-AA
  interaction score: -1.52
4H745-AA
  interaction score: -1.86
4H2698-AA
  interaction score: -0.986
4H891-AA
  interaction score: -1.42
4H2649-AA
  interaction score: -1.27
4H797-AA
  interaction score: -1.34

## DENAALKAKIAALKAEIAALEAKNAALKG [4H1864-AA]
4H710-AA
  interaction score: 1.32
4H930-AA
  interaction score: -1.41
4H2253-AA
  interaction score: -1.42
4H485-AA
  interaction score: -0.878
4H3130-AA
  interaction score: -0.716
4H2330-AA; mean of both orientations
  interaction score: -1.49
4H310-AA
  interaction score: -1.48
4H536-AA
  interaction score: 0.437
4H3016-AA
  interaction score: -1.47
4H909-AA
  interaction score: -1.38
4H3865-AA
  interaction score: -1.65
4H94-AA
  interaction score: -0.986
4H3590-AA
  interaction score: 1.23
4H2389-AA
  interaction score: 0.806
4H3410-AA
  interaction score: -1.5
4H3165-AA
  interaction score: -1.47
4H3697-AA
  interaction score: -1.57
4H2274-AA
  interaction score: -1.75
4H570-AA
  interaction score: -0.57
4H3009-AA
  interaction score: -0.905
4H629-AA
  interaction score: -1.52
4H850-AA
  interaction score: 0.223
4H458-AA
  interaction score: -1.21
4H2865-AA
  interaction score: -1.19
4H3381-AA
  interaction score: -1.63
4H1877-AA
  interaction score: -1.45
4H2162-AA
  interaction score: -1.67
4H1864-AA
  interaction score: 0.981
4H2725-AA; mean of both orientations
  interaction score: -0.938
4H3395-AA
  interaction score: 0.321
4H2473-AA
  interaction score: -1.22
4H3120-AA
  interaction score: 0.774
4H2109-AA
  interaction score: -0.599
4H2438-AA
  interaction score: 0.434
4H3753-AA
  interaction score: 0.231
4H745-AA
  interaction score: -1.35
4H2698-AA
  interaction score: -0.664
4H891-AA
  interaction score: -0.897
4H2649-AA
  interaction score: -1.17
4H797-AA
  interaction score: -2.09

## DEIAALKAEIAALEAKNAALEAKNAALKG [4H568-AA]
4H568-AA
  interaction score: -0.405
4H953-AA
  interaction score: -1.78
4H687-AA
  interaction score: -1.51
4H967-AA
  interaction score: -0.838
4H717-AA
  interaction score: -1.75
4H883-AA
  interaction score: 2.12
4H797-AA
  interaction score: -1.39
4H918-AA
  interaction score: -1.24
